Each block holds one molecule with its values, some of them ahead of it.
How the values were obtained:
human CCR8 [1] = biological target: T1, human CCR8 (human, UniProt P51685 1-355); assay: flow blocking, PBMC CCR8+CD3+; competitor PE-AB5
T1 construct: Native CCR8 on human PBMC (CCR8+ CD3+ or CCR8+ CD4+ lymphocytes); also called chemokine (C-C motif) receptor 8
Method in brief: (§1)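 PE MFI, gated on CCR8+ CD4+ or CD3+ lymphocytes, was compared with isotype-blocked controls and subtracted from 100. Preblocking used 10 μg unlabeled antibody; the competitor was 0.25 μg PE conjugate, stained 15 min in the dark.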

human CCR8 [2] = biological target: T1, human CCR8; assay: flow blocking, PBMC CCR8+CD3+; competitor PE-AB6
Method in brief: as §1

human CCR8 [3] = biological target: T1, human CCR8; assay: flow blocking, PBMC CCR8+CD3+; competitor PE-AB7
Method in brief: as §1

human CCR8 [4] = biological target: T1, human CCR8; assay: flow blocking, PBMC CCR8+CD3+; competitor PE-AB8
Method in brief: as §1

human CCR8 [5] = biological target: T1, human CCR8; assay: flow blocking, PBMC CCR8+CD4+; competitor PE-AB1
Method in brief: (§2)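 Blocking percentage derives from PE-competitor MFI on CCR8+ CD4+ or CD3+ lymphocytes, expressed relative to isotype-blocked samples and subtracted from 100. Cells received 10 μg unlabeled test antibody or isotype before 15 min dark staining with 0.25 μg PE-conjugated antibody and anti-CD4 or anti-CD3.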

human CCR8 [6] = biological target: T1, human CCR8; assay: flow blocking, PBMC CCR8+CD4+; competitor PE-AB2
Method in brief: as §2

human CCR8 [7] = biological target: T1, human CCR8; assay: flow blocking, PBMC CCR8+CD4+; competitor PE-AB3
Method in brief: as §2

human CCR8 [8] = biological target: T1, human CCR8; assay: flow blocking, PBMC CCR8+CD4+; competitor PE-AB4
Method in brief: as §2

human CCR8 [9] = biological target: T1, human CCR8; assay: flow blocking, PBMC CCR8+CD4+; competitor PE-AB5
Method in brief: as §2

human CCR8 [10] = biological target: T1, human CCR8; assay: flow blocking, PBMC CCR8+CD4+; competitor PE-AB6
human CCR8 [11] = biological target: T1, human CCR8; assay: flow blocking, PBMC CCR8+CD3+; competitor PE-433H
Method in brief: as §1

human CCR8 [12] = biological target: T1, human CCR8; assay: flow blocking, PBMC CCR8+CD3+; competitor PE-AB10
Method in brief: as §1

human CCR8 [13] = biological target: T1, human CCR8; assay: flow blocking, PBMC CCR8+CD3+; competitor PE-AB11
Method in brief: as §1

human CCR8 [14] = biological target: T1, human CCR8; assay: flow blocking, PBMC CCR8+CD3+; competitor PE-AB12
Method in brief: as §1

human CCR8 [15] = biological target: T1, human CCR8; assay: flow blocking, PBMC CCR8+CD3+; competitor PE-AB13
Method in brief: as §1

human CCR8 [16] = biological target: T1, human CCR8; assay: flow blocking, PBMC CCR8+CD3+; competitor PE-AB14
Method in brief: as §1

human CCR8 [17] = biological target: T1, human CCR8; assay: flow blocking, PBMC CCR8+CD3+; competitor PE-AB15
Method in brief: as §1

human CCR8 [18] = biological target: T1, human CCR8; assay: flow blocking, PBMC CCR8+CD4+; competitor PE-433H
Method in brief: (§3)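 Human PBMC (100 μL suspension) were pre-blocked with 10 μg of each unlabelled anti-CCR8 antibody or isotype control. Cells were then stained 15 min in the dark with 0.25 μg of the PE-conjugated competitor antibody plus anti-CD4 or anti-CD3. Read-out by flow cytometry as MFI on CCR8+CD4+ or CCR8+CD3+ lymphocytes.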

human CCR8 [19] = biological target: T1, human CCR8; assay: flow blocking, PBMC CCR8+CD4+; competitor PE-AB10
Method in brief: as §2

human CCR8 [20] = biological target: T1, human CCR8; assay: flow blocking, PBMC CCR8+CD4+; competitor PE-AB11
Method in brief: as §2

human CCR8 [21] = biological target: T1, human CCR8; assay: flow blocking, PBMC CCR8+CD4+; competitor PE-AB12
Method in brief: as §2

human CCR8 [22] = biological target: T1, human CCR8; assay: flow blocking, PBMC CCR8+CD4+; competitor PE-AB13
Method in brief: as §3

human CCR8 [23] = biological target: T1, human CCR8; assay: flow blocking, PBMC CCR8+CD4+; competitor PE-AB14
Method in brief: as §3

human CCR8 [24] = biological target: T1, human CCR8; assay: flow blocking, PBMC CCR8+CD4+; competitor PE-AB15
Method in brief: as §2

human CCR8 [25] = biological target: T1, human CCR8; assay: flow blocking, PBMC CCR8+CD3+; competitor PE-L263G8
Method in brief: as §1

[26] = biological target: human chemokine (C-C motif) receptor 8 (CCR8) (human) (UniProt P51685); assay: flow cytometry blocking, PBMC CCR8+ CD4+ cells; competitor PE-AB6 (its MFI is read)
Chain of human chemokine (C-C motif) receptor 8 (CCR8) (human) (P51685 whole entry): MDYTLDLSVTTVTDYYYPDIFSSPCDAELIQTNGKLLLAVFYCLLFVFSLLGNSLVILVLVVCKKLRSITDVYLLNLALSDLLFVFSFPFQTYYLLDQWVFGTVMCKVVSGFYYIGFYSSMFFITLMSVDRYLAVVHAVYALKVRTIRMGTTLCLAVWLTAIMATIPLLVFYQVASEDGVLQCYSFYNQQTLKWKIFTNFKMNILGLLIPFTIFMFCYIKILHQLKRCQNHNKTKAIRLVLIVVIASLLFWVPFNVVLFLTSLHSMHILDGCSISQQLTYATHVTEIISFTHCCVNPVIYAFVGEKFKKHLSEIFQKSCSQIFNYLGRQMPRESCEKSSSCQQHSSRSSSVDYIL

human CCR8 [27] = biological target: T1, human CCR8; assay: flow, PBMC CCR8+CD3+; PE-L263G8 staining after isotype block
[28] = biological target: T2, human chemokine (C-C motif) receptor 8 (CCR8) (human, UniProt P51685 1-355); assay: cell-based or functional assay
T2 sequence (P51685 whole entry): as above

[29] = biological target: T2, human chemokine (C-C motif) receptor 8 …; assay: cell-based or functional assay; remark: listed apart in the source
[30] = biological target: T2, human chemokine (C-C motif) receptor 8 …; assay: flow cytometry blocking, PBMC CCR8+ CD4+ cells; competitor PE-AB1 (its MFI is read)
Procedure: (§4) For blocking studies, 100 μL of the cell suspension were incubated with 10 μg purified isotype control, AB1, AB2, AB3, AB4, AB5, AB8, AB9, AB10, AB11, AB12, AB13, AB14, AB15, and Commercial ABI antibodies, or isotype control, as blocking agents.
(§5) After incubation with the blocking agent, the cells were incubated with 0.25 μg of the indicated PE-conjugated antibody plus anti-human CD4 APC or anti-human CD3 for another 15 minutes in the dark and then washed 2 times with Cell Staining Buffer, and acquired in a FACSCanto II flow cytometer (BD Biosciences); the data was analyzed using FCS Express (De Novo Software); MFI correspond to the CCR8+ CD4+ lymphocytes or CCR8+ CD3+ lymphocytes.
(§6) Percentage original MFI was calculated by dividing the MFI of samples blocked with AB1, AB2, AB3, AB4, AB5, AB6, AB7, AB8, AB9, AB10, AB11, AB12, AB13, AB14, AB15, and Commercial ABI antibodies, by the MFI of samples blocked with the corresponding isotype control. This value was subtracted from 100 to get a blocking percentage. The formula is shown below: […]

[31] = biological target: T2, human chemokine (C-C motif) receptor 8 …; assay: flow cytometry blocking, PBMC CCR8+ CD4+ cells; competitor PE-AB2 (its MFI is read)
Procedure: as §4, §5, §6

[32] = biological target: T2, human chemokine (C-C motif) receptor 8 …; assay: flow cytometry blocking, PBMC CCR8+ CD4+ cells; competitor PE-AB3 (its MFI is read)
Procedure: as §4, §5, §6

[33] = biological target: T2, human chemokine (C-C motif) receptor 8 …; assay: flow cytometry blocking, PBMC CCR8+ CD4+ cells; competitor PE-AB4 (its MFI is read)
Procedure: as §4, §5, §6

[34] = biological target: T2, human chemokine (C-C motif) receptor 8 …; assay: flow cytometry blocking, PBMC CCR8+ CD4+ cells; competitor PE-AB5 (its MFI is read)
Procedure: as §4, §5, §6

[35] = biological target: T2, human chemokine (C-C motif) receptor 8 …; assay: flow cytometry blocking, PBMC CCR8+ CD4+ cells; competitor PE-AB6 (its MFI is read)
Procedure: as §4, §5, §6

[36] = biological target: T2, human chemokine (C-C motif) receptor 8 …; assay: flow cytometry blocking, PBMC CCR8+ CD4+ cells; competitor PE-AB10 (its MFI is read)
Procedure: as §4, §5, §6

[37] = biological target: T2, human chemokine (C-C motif) receptor 8 …; assay: flow cytometry blocking, PBMC CCR8+ CD4+ cells; competitor PE-AB11 (its MFI is read)
Procedure: as §4, §5, §6

[38] = biological target: T2, human chemokine (C-C motif) receptor 8 …; assay: flow cytometry blocking, PBMC CCR8+ CD4+ cells; competitor PE-AB12 (its MFI is read)
Procedure: as §4, §5, §6

[39] = biological target: T2, human chemokine (C-C motif) receptor 8 …; assay: flow cytometry blocking, PBMC CCR8+ CD4+ cells; competitor PE-AB13 (its MFI is read)
Procedure: as §4, §5, §6

[40] = biological target: T2, human chemokine (C-C motif) receptor 8 …; assay: flow cytometry blocking, PBMC CCR8+ CD4+ cells; competitor PE-AB14 (its MFI is read)
Procedure: as §4, §5, §6

[41] = biological target: T2, human chemokine (C-C motif) receptor 8 …; assay: flow cytometry blocking, PBMC CCR8+ CD4+ cells; competitor PE-AB15 (its MFI is read)
Procedure: as §4, §5, §6

[42] = biological target: T2, human chemokine (C-C motif) receptor 8 …; assay: flow cytometry blocking, PBMC CCR8+ CD4+ cells; competitor PE-ABII (its MFI is read)
Procedure: as §4, §5, §6

human CCR8 [43] = biological target: T1, human CCR8; assay: flow, PBMC CCR8+CD3+; PE-433H staining after isotype block
human CCR8 [44] = biological target: T1, human CCR8; assay: flow, PBMC CCR8+CD4+; PE-433H staining after isotype block

T1 sequence (P51685 whole entry): as above

Molecule: Commercial L263G8 (antibody)
MFI (human CCR8 [27]): 674

B1: AB11 (antibody, V domains shown)
VH: EVQLVESGGGLVQPKGSLKLSCAASGFAFNTYAMNWVRQAPGKGLEWIARLRSKSNFYATYYADSVKDRFTISRDDSQSMLYLQMNNLKTEDTAVYYCVRGRELGPSYAMDYWGQGTSVTVSS
VL: DIVMTQAAPSVPVTPGESVSISCRSSKSLLHSNGNTYLYWFLQRPGQSPQLLIYRMSNLASGVPDRFSGSGSGTAFTLRISRVEAEDVGVYYCMQHLEYPYTFGGGTKLEIK
notes: Hybridoma monoclonal; also called antibody 11; clone 11
ratio of Target/Control cells after AB11 plus complement [28]: 0.103 | % hCCR8-Ba/F3 - THP-1 complexes [29]: 1.12% | % Blocking [30]: -48.1% | MFI [30]: 971 | % Blocking [31]: -53.5% | MFI [31]: 1030 | % Blocking [32]: -61.7% | MFI [32]: 1120 | % Blocking [33]: -53.4% | MFI [33]: 1050 | % Blocking [34]: -36% | MFI [34]: 1020 | % Blocking [35]: -36.2% | MFI [35]: 1070 | % Blocking [36]: 34.5% | MFI [36]: 661 | % Blocking [37]: 25.3% | MFI [37]: 674 | % Blocking [38]: 0.83% | MFI [38]: 968 | % Blocking [39]: 7.44% | MFI [39]: 867 | % Blocking [40]: -1190% | MFI [40]: 11400 | % Blocking [41]: -75.1% | MFI [41]: 1390 | % Blocking [42]: 16.6% | MFI [42]: 924

Continued, values first:

% Blocking (human CCR8 [1]): 0% | % Blocking (human CCR8 [2]): 0% | % Blocking (human CCR8 [3]): 0% | % Blocking (human CCR8 [4]): 0% | % Blocking (human CCR8 [5]): 0% | % Blocking (human CCR8 [6]): 0% | % Blocking (human CCR8 [7]): 0% | % Blocking (human CCR8 [8]): 0% | % Blocking (human CCR8 [9]): 0% | % Blocking (human CCR8 [10]): 0% | % Blocking (human CCR8 [11]): 0% | % Blocking (human CCR8 [12]): 0% | % Blocking (human CCR8 [13]): 0% | % Blocking (human CCR8 [14]): 0% | % Blocking (human CCR8 [15]): 0% | % Blocking (human CCR8 [16]): 0% | % Blocking (human CCR8 [17]): 0% | % Blocking (human CCR8 [18]): 0% | % Blocking (human CCR8 [19]): 0% | % Blocking (human CCR8 [20]): 0% | % Blocking (human CCR8 [21]): 0% | % Blocking (human CCR8 [22]): 0% | % Blocking (human CCR8 [23]): 0% | % Blocking (human CCR8 [24]): 0% | % Blocking (human CCR8 [25]): 0% | % Blocking [26]: 0%
Molecule: isotype control (antibody)

MFI (human CCR8 [43]): 886 | % Positive cells (human CCR8 [44]): 1.76%
B2: Commercial 433H (antibody, from another filing, V domains shown)
VH: EVQLVETGGGLVQPKGSLRLSCAASGFPFNTFAMNWVRQAPGKGLEWLARIRSKSNNYATYYADSVKDRFTISRDDSRRMLYLLMNNVKFEDTAIYYCVRGKENNYGYAMDYWGQGTSVTVSS
VL: DIVMTQAAPSVPVTPGESVSISCRSSQSLLHSNGNTYLYWFLQRPGQSPQLLIYRMSNLASGVPDRFSGSGSGTAFTLRISRVEAEDVGVYYCMQHLEYPFTFGIGTKLELKR
